In doi:10.1101/609503:

Target: MepS (E. coli) (UniProt P0AFV4)
Test: MST

MepS (E. coli), sequence (P0AFV4 27-188): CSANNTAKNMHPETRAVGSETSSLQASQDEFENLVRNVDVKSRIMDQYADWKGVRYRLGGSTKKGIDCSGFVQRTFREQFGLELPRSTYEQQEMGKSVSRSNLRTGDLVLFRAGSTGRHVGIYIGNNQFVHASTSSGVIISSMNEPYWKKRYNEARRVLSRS

## NlpI (soluble version, residues 19-294) (from UniProt P0AFB1 19-294) (natural protein)
  Kd: 0.145 µM
